Results: publication PMC9709245, “The stem region of α1,6-fucosyltransferase FUT8 is required for multimer formation but not catalytic activity” (The Journal of Biological Chemistry, 2022)
Numbering of substitutions follows the chain as printed. In names and notes the source's numbering stands. Blank lines part the entries; values can stand above or below the binder they belong to.

Experiments:
[1] = target: the molecule itself; experiment: native gel or EMSA; Blue Native PAGE (4% to 16%) of purified soluble His-FUT8, Western blot with anti-FUT8
[2] = target: T1, alpha-1,6-fucosyltransferase FUT8 WT (human, UniProt Q9BYC5 1-575); experiment: co-IP; lysates (TBS, 1% Triton X-100) of HEK293 FUT8KO cells coexpressing Myc-tagged FUT8 WT or mutant with 3xFLAG-FUT8 WT; anti-DYKDDDDK antibody magnetic beads, 4 °C overnight; anti-Myc blot; IP signal divided by input, relative to FUT8 WT; settings: partners not purified
T1 construct: No chain bears both Myc and 3xFLAG; also called Myc-FUT8; Myc-tagged FUT8; source: HEK293 FUT8KO, transfected, in lysate; not shown: Myc (copy from pcDNA6-mycHisA), C-terminal, kept; His tag (from the vector pcDNA6-mycHisA); 3xFLAG (other copy; from pME-3xFLAG), C-terminal, kept
T1 sequence (looked up): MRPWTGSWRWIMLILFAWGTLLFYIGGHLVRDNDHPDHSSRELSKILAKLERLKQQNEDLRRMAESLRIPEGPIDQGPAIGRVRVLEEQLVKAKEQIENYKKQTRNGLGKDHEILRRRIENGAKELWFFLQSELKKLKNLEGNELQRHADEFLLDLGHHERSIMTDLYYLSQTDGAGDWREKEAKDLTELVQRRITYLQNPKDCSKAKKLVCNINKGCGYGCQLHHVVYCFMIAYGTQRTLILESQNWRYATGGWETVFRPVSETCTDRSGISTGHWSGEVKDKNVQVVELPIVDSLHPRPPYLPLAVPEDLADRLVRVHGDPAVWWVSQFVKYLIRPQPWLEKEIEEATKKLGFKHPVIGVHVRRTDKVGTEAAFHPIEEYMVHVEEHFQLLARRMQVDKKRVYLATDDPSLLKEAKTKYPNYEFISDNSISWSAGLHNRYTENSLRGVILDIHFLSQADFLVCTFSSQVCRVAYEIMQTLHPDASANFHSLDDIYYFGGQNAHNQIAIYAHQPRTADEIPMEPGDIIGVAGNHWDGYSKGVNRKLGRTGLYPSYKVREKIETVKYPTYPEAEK

[3] = target: the molecule itself; experiment: split reporter (BiFC, NanoBiT); NanoBiT; LgBiT and SmBiT fusions coexpressed in HEK293 FUT8KO cells; 0.6 μg of lysate protein (TBS, 1% Triton X-100) with Nano-Glo Live Cell Substrate at RT; luminescence relative to empty-vector (Mock) sample

B1: soluble His-FUT8 (Arg68-Lys575) (domain or fragment, human, UniProt Q9BYC5 68-575, looked up)
chain: RIPEGPIDQGPAIGRVRVLEEQLVKAKEQIENYKKQTRNGLGKDHEILRRRIENGAKELWFFLQSELKKLKNLEGNELQRHADEFLLDLGHHERSIMTDLYYLSQTDGAGDWREKEAKDLTELVQRRITYLQNPKDCSKAKKLVCNINKGCGYGCQLHHVVYCFMIAYGTQRTLILESQNWRYATGGWETVFRPVSETCTDRSGISTGHWSGEVKDKNVQVVELPIVDSLHPRPPYLPLAVPEDLADRLVRVHGDPAVWWVSQFVKYLIRPQPWLEKEIEEATKKLGFKHPVIGVHVRRTDKVGTEAAFHPIEEYMVHVEEHFQLLARRMQVDKKRVYLATDDPSLLKEAKTKYPNYEFISDNSISWSAGLHNRYTENSLRGVILDIHFLSQADFLVCTFSSQVCRVAYEIMQTLHPDASANFHSLDDIYYFGGQNAHNQIAIYAHQPRTADEIPMEPGDIIGVAGNHWDGYSKGVNRKLGRTGLYPSYKVREKIETVKYPTYPEAEK
notes: human FUT8, soluble form from Arg68 to the C terminus (Lys575); Plasmid pcDNA-IH/FUT8; also called purified soluble FUT8; recombinant soluble FUT8; source: COS7, transfected, purified from the culture medium (Ni2+ column, NAP-5 desalting)
binding result [1]: binds

B4: FUT8 stem (N-terminal part of FUT8, cytosolic region to stem region) fused with LgBiT or SmBiT (domain or fragment, human, UniProt Q9BYC5 1-108, looked up)
chain: MRPWTGSWRWIMLILFAWGTLLFYIGGHLVRDNDHPDHSSRELSKILAKLERLKQQNEDLRRMAESLRIPEGPIDQGPAIGRVRVLEEQLVKAKEQIENYKKQTRNGL
notes: human FUT8, 1st to 326th base of the cDNA: cytosolic region, transmembrane region and stem region (stem ends at Leu108); Two differently tagged copies of the same fragment; no chain bears both LgBiT and SmBiT; The 326th base is two bases past codon 108; also called FUT8 stem-LgBiT; FUT8 stem-SmBiT; source: HEK293 FUT8KO, transfected, in lysate; not shown: LgBiT (one copy; vector pBiT1.1-C …)
relative luminescence (NanoBiT, relative to Mock) [3]: 165 relative to Mock

B6: FUT8 Y100A/R105A (enzyme, human, UniProt Q9BYC5 1-575, looked up)
chain: T1 sequence (looked up) with Y100A, R105A
notes: human FUT8 with two point mutations in Helix 2 of the stem region; also called Myc-tagged FUT8 Y100A/R105A; source: HEK293 FUT8KO, transfected, in lysate; not shown: Myc, C-terminal, kept
coprecipitated anti-Myc signal (IP/input) relative to FUT8 WT [2]: 1.56 relative to FUT8 WT

Further lines, results first:

coprecipitated anti-Myc signal (IP/input) relative to FUT8 WT [2]: 0.127 relative to FUT8 WT
B2: FUT8Δstem-GSx22 (enzyme, human)
chain: MRPWTGSWRWIMLILFAWGTLLFYIGGHLGSGSGSGSGSGSGSGSGSGSGSGSGSGSGSGSGSGSGSGSGSGSGKDHEILRRRIENGAKELWFFLQSELKKLKNLEGNELQRHADEFLLDLGHHERSIMTDLYYLSQTDGAGDWREKEAKDLTELVQRRITYLQNPKDCSKAKKLVCNINKGCGYGCQLHHVVYCFMIAYGTQRTLILESQNWRYATGGWETVFRPVSETCTDRSGISTGHWSGEVKDKNVQVVELPIVDSLHPRPPYLPLAVPEDLADRLVRVHGDPAVWWVSQFVKYLIRPQPWLEKEIEEATKKLGFKHPVIGVHVRRTDKVGTEAAFHPIEEYMVHVEEHFQLLARRMQVDKKRVYLATDDPSLLKEAKTKYPNYEFISDNSISWSAGLHNRYTENSLRGVILDIHFLSQADFLVCTFSSQVCRVAYEIMQTLHPDASANFHSLDDIYYFGGQNAHNQIAIYAHQPRTADEIPMEPGDIIGVAGNHWDGYSKGVNRKLGRTGLYPSYKVREKIETVKYPTYPEAEK
notes: human FUT8, start codon to the 87th base of the cDNA; the stem region Val30-Leu108 is replaced; glycine-serine repeat of 44 amino acids; human FUT8, 325th to 1725th base of the cDNA (coiled-coil domain to the C terminus); Anti-Myc blots show two bands (full size and about 50 kDa); also called Myc-tagged FUT8Δstem-GSx22; source: HEK293 FUT8KO, transfected, in lysate; not shown: Myc, C-terminal, …

coprecipitated anti-Myc signal (IP/input) relative to FUT8 WT [2]: 0.5 relative to FUT8 WT
B3: FUT8Δhelix 2 (enzyme, human, UniProt Q9BYC5 1-575, looked up)
chain: MRPWTGSWRWIMLILFAWGTLLFYIGGHLVRDNDHPDHSSRELSKILAKLERLKQQNEDLRRMAESLRIPEGPIDQGPNGLGKDHEILRRRIENGAKELWFFLQSELKKLKNLEGNELQRHADEFLLDLGHHERSIMTDLYYLSQTDGAGDWREKEAKDLTELVQRRITYLQNPKDCSKAKKLVCNINKGCGYGCQLHHVVYCFMIAYGTQRTLILESQNWRYATGGWETVFRPVSETCTDRSGISTGHWSGEVKDKNVQVVELPIVDSLHPRPPYLPLAVPEDLADRLVRVHGDPAVWWVSQFVKYLIRPQPWLEKEIEEATKKLGFKHPVIGVHVRRTDKVGTEAAFHPIEEYMVHVEEHFQLLARRMQVDKKRVYLATDDPSLLKEAKTKYPNYEFISDNSISWSAGLHNRYTENSLRGVILDIHFLSQADFLVCTFSSQVCRVAYEIMQTLHPDASANFHSLDDIYYFGGQNAHNQIAIYAHQPRTADEIPMEPGDIIGVAGNHWDGYSKGVNRKLGRTGLYPSYKVREKIETVKYPTYPEAEK
notes: human FUT8; start codon to the 234th base joined to the 316th to 1725th base of the cDNA, so that Helix 2 (Ala79-Arg105) is missing; also called Myc-tagged FUT8 Δhelix 2; source: HEK293 FUT8KO, transfected, in lysate; not shown: Myc, C-terminal, kept

coprecipitated anti-Myc signal (IP/input) relative to FUT8 WT [2]: 0.0934 relative to FUT8 WT
B5: FUT8Δhelix 1 (enzyme, human, UniProt Q9BYC5 1-575, looked up)
chain: MRPWTGSWRWIMLILFAWGTLLFYIGGHLVRDNDHRIPEGPIDQGPAIGRVRVLEEQLVKAKEQIENYKKQTRNGLGKDHEILRRRIENGAKELWFFLQSELKKLKNLEGNELQRHADEFLLDLGHHERSIMTDLYYLSQTDGAGDWREKEAKDLTELVQRRITYLQNPKDCSKAKKLVCNINKGCGYGCQLHHVVYCFMIAYGTQRTLILESQNWRYATGGWETVFRPVSETCTDRSGISTGHWSGEVKDKNVQVVELPIVDSLHPRPPYLPLAVPEDLADRLVRVHGDPAVWWVSQFVKYLIRPQPWLEKEIEEATKKLGFKHPVIGVHVRRTDKVGTEAAFHPIEEYMVHVEEHFQLLARRMQVDKKRVYLATDDPSLLKEAKTKYPNYEFISDNSISWSAGLHNRYTENSLRGVILDIHFLSQADFLVCTFSSQVCRVAYEIMQTLHPDASANFHSLDDIYYFGGQNAHNQIAIYAHQPRTADEIPMEPGDIIGVAGNHWDGYSKGVNRKLGRTGLYPSYKVREKIETVKYPTYPEAEK
notes: human FUT8; start codon to the 105th base joined to the 202nd to 1725th base of the cDNA, so that Helix 1 (Pro36-Leu67) is missing; also called Myc-tagged FUT8 Δhelix 1; source: HEK293 FUT8KO, transfected, in lysate; not shown: Myc, C-terminal, kept

coprecipitated anti-Myc signal (IP/input) relative to FUT8 WT [2]: 0.122 relative to FUT8 WT
B7: FUT8Δstem-GSx40 (enzyme, human)
chain: MRPWTGSWRWIMLILFAWGTLLFYIGGHLGSGSGSGSGSGSGSGSGSGSGSGSGSGSGSGSGSGSGSGSGSGSGSGSGSGSGSGSGSGSGSGSGSGSGSGSGSGSGSGSGKDHEILRRRIENGAKELWFFLQSELKKLKNLEGNELQRHADEFLLDLGHHERSIMTDLYYLSQTDGAGDWREKEAKDLTELVQRRITYLQNPKDCSKAKKLVCNINKGCGYGCQLHHVVYCFMIAYGTQRTLILESQNWRYATGGWETVFRPVSETCTDRSGISTGHWSGEVKDKNVQVVELPIVDSLHPRPPYLPLAVPEDLADRLVRVHGDPAVWWVSQFVKYLIRPQPWLEKEIEEATKKLGFKHPVIGVHVRRTDKVGTEAAFHPIEEYMVHVEEHFQLLARRMQVDKKRVYLATDDPSLLKEAKTKYPNYEFISDNSISWSAGLHNRYTENSLRGVILDIHFLSQADFLVCTFSSQVCRVAYEIMQTLHPDASANFHSLDDIYYFGGQNAHNQIAIYAHQPRTADEIPMEPGDIIGVAGNHWDGYSKGVNRKLGRTGLYPSYKVREKIETVKYPTYPEAEK
notes: human FUT8, start codon to the 87th base of the cDNA; the stem region Val30-Leu108 is replaced; glycine-serine repeat of 80 amino acids; human FUT8, 325th to 1725th base of the cDNA (coiled-coil domain to the C terminus); Anti-Myc blots show two bands (full size and about 50 kDa); also called Myc-tagged FUT8Δstem-GSx40; source: HEK293 FUT8KO, transfected, in lysate; not shown: Myc, C-terminal, …
